Patent publication US20240092890A1 (JUNTENDO EDUCATIONAL FOUNDATION, published 2024)

T1: protein having an Fc region and a His-tag added to the N-terminus of SEQ ID NO: 1
T1 construct: also called mutant CALR protein (antigen of the BLItz measurement); not shown: Fc region and His-tag at the N-terminus
T1 chain: RRMMRTKMRMRRM

T2: Ins 5 type mutant CALR protein on UT-7/TPO CALR Ins 5 cells (UniProt P27797 18-417)
T2 sequence (looked up): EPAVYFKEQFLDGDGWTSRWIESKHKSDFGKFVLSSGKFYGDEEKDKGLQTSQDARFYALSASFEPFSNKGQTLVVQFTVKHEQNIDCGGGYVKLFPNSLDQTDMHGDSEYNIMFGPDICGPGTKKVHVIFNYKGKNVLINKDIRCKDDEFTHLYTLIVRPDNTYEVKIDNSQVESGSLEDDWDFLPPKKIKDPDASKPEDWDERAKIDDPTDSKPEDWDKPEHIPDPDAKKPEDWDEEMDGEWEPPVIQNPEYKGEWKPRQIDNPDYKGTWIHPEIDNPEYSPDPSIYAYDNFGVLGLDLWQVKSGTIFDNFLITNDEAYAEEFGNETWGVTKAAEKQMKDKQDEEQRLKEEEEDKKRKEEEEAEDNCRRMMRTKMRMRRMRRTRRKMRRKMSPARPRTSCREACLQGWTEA


What was measured:
[1] = target: T1, protein having an Fc region and a …; assay: BLItz biolayer interferometry, Fc/His-SEQ ID NO: 1 protein on the biosensor
Procedure, shortened: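 The Fc/His-tagged protein was loaded at 0.1 mg/mL onto Anti-Penta-HIS or Protein A biosensors. Antibodies were run at 500, 100 and 50 nM by biolayer interferometry, and the dissociation constant was derived from these binding curves.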

[2] = target: T2, Ins 5 type mutant CALR protein on …; assay: cell-based or functional assay

Binder | Kd [1] | EC50 of cytotoxic activity (calcein release, T-LAK effector cells) [2]
Antibody 22 (bispecific antibody, hOKT3 scFv, B3 Fab heavy chain and CH3 domain in one polypeptide, with the B3 light chain) heavy: QVQLVQSGGGVVQPGRSLRLSCKASGYTFTRYTMHWVRQAPGKGLEWIGYINPSRGYTNYNQKVKDRFTISRDNSKNTAFLQMDSLRPEDTGVYFCARYYDDHYSLDYWGQGTPVTVSSGGGGSGGGGSGGGGSDIQMTQSPSSLSASVGDRVTITCSASSSVSYMNWYQQTPGKAPKRWIYDTSKLASGVPSRFSGSGSGTDYTFTISSLQPEDIATYYCQQWSSNPFTFGQGTKLQITRGGGGSQVQLQQSGAELVKPGSSVKISCKASGYTFTRNFIHWIKQQPGNGLEWIGWIFPGDGDTEYNQKFNGKATLTADKSSSTAYMQLSSLTSEDSAVYFCARGNYNYEYFDYWGQGVMVTVSSASTKGPSVFPLAPSSKSTSGGTAALGCLVKDYFPEPVTVSWNSGALTSGVHTFPAVLQSSGLYSLSSVVTVPSSSLGTQTYICNVNHKPSNTKVDKRVEPKSCAAAGGGQPREPQVYTLPPSREEMTKNQVSLTCLVKGFYPSDIAVEWESNGQPENNYKTTPPVLDSDGSFFLYSKLTVDKSRWQQGNVFSCSVMHEALHNHYTQKSLSLSPGK light: DIQMTQSPASLSASLGETVSIECLASEDIYSYLAWYQQKPGKSPQLLIFAANRLQDGVPSRFSGSGSGTQFSLKISGMQPEDEGDYFCLQGSKFPYTFGPGTKLELNRTVAAPSVFIFPPSDEQLKSGTASVVCLLNNFYPREAKVQWKVDNALQSGNSQESVTEQDSKDSTYSLSSTLTLSKADYEKHKVYACEVTHQGLSSPVTKSFNRGEC | < 0.001 nM | 0.101 nM
Antibody 19 (bispecific antibody, B3 Fab heavy chain, hOKT3 scFv and a second B3 Fab heavy chain in one polypeptide, with the B3 light chain) heavy: QVQLQQSGAELVKPGSSVKISCKASGYTFTRNFIHWIKQQPGNGLEWIGWIFPGDGDTEYNQKFNGKATLTADKSSSTAYMQLSSLTSEDSAVYFCARGNYNYEYFDYWGQGVMVTVSSASTKGPSVFPLAPSSKSTSGGTAALGCLVKDYFPEPVTVSWNSGALTSGVHTFPAVLQSSGLYSLSSVVTVPSSSLGTQTYICNVNHKPSNTKVDKRVEPKSCGGGGSQVQLVQSGGGVVQPGRSLRLSCKASGYTFTRYTMHWVRQAPGKGLEWIGYINPSRGYTNYNQKVKDRFTISRDNSKNTAFLQMDSLRPEDTGVYFCARYYDDHYSLDYWGQGTPVTVSSGGGGSGGGGSGGGGSDIQMTQSPSSLSASVGDRVTITCSASSSVSYMNWYQQTPGKAPKRWIYDTSKLASGVPSRFSGSGSGTDYTFTISSLQPEDIATYYCQQWSSNPFTFGQGTKLQITRGGGGSQVQLQQSGAELVKPGSSVKISCKASGYTFTRNFIHWIKQQPGNGLEWIGWIFPGDGDTEYNQKFNGKATLTADKSSSTAYMQLSSLTSEDSAVYFCARGNYNYEYFDYWGQGVMVTVSSASTKGPSVFPLAPSSKSTSGGTAALGCLVKDYFPEPVTVSWNSGALTSGVHTFPAVLQSSGLYSLSSVVTVPSSSLGTQTYICNVNHKPSNTKVDKRVEPKSCHHHHHH light: DIQMTQSPASLSASLGETVSIECLASEDIYSYLAWYQQKPGKSPQLLIFAANRLQDGVPSRFSGSGSGTQFSLKISGMQPEDEGDYFCLQGSKFPYTFGPGTKLELNRTVAAPSVFIFPPSDEQLKSGTASVVCLLNNFYPREAKVQWKVDNALQSGNSQESVTEQDSKDSTYSLSSTLTLSKADYEKHKVYACEVTHQGLSSPVTKSFNRGEC | 0.728 nM | 3.71 nM
Antibody 17 (bispecific antibody, B3 Fab heavy chain, hOKT3 scFv and Fc in one polypeptide, with the B3 light chain) heavy: not shown light: DIQMTQSPASLSASLGETVSIECLASEDIYSYLAWYQQKPGKSPQLLIFAANRLQDGVPSRFSGSGSGTQFSLKISGMQPEDEGDYFCLQGSKFPYTFGPGTKLELNRTVAAPSVFIFPPSDEQLKSGTASVVCLLNNFYPREAKVQWKVDNALQSGNSQESVTEQDSKDSTYSLSSTLTLSKADYEKHKVYACEVTHQGLSSPVTKSFNRGEC | < 0.001 nM | 0.046 nM
Antibody 18 (bispecific antibody, B3 Fab heavy chain, hOKT3 scFv and CH3 domain in one polypeptide, with the B3 light chain) heavy: QVQLQQSGAELVKPGSSVKISCKASGYTFTRNFIHWIKQQPGNGLEWIGWIFPGDGDTEYNQKFNGKATLTADKSSSTAYMQLSSLTSEDSAVYFCARGNYNYEYFDYWGQGVMVTVSSASTKGPSVFPLAPSSKSTSGGTAALGCLVKDYFPEPVTVSWNSGALTSGVHTFPAVLQSSGLYSLSSVVTVPSSSLGTQTYICNVNHKPSNTKVDKRVEPKSCGGGGSQVQLVQSGGGVVQPGRSLRLSCKASGYTFTRYTMHWVRQAPGKGLEWIGYINPSRGYTNYNQKVKDRFTISRDNSKNTAFLQMDSLRPEDTGVYFCARYYDDHYSLDYWGQGTPVTVSSGGGGSGGGGSGGGGSDIQMTQSPSSLSASVGDRVTITCSASSSVSYMNWYQQTPGKAPKRWIYDTSKLASGVPSRFSGSGSGTDYTFTISSLQPEDIATYYCQQWSSNPFTFGQGTKLQITRAAAGGGQPREPQVYTLPPSREEMTKNQVSLTCLVKGFYPSDIAVEWESNGQPENNYKTTPPVLDSDGSFFLYSKLTVDKSRWQQGNVFSCSVMHEALHNHYTQKSLSLSPGK light: DIQMTQSPASLSASLGETVSIECLASEDIYSYLAWYQQKPGKSPQLLIFAANRLQDGVPSRFSGSGSGTQFSLKISGMQPEDEGDYFCLQGSKFPYTFGPGTKLELNRTVAAPSVFIFPPSDEQLKSGTASVVCLLNNFYPREAKVQWKVDNALQSGNSQESVTEQDSKDSTYSLSSTLTLSKADYEKHKVYACEVTHQGLSSPVTKSFNRGEC | < 0.001 nM | 0.081 nM
Antibody 23 (bispecific antibody, B3 Fab with hOKT3 scFv fused to the light chain N-terminus) heavy: QVQLQQSGAELVKPGSSVKISCKASGYTFTRNFIHWIKQQPGNGLEWIGWIFPGDGDTEYNQKFNGKATLTADKSSSTAYMQLSSLTSEDSAVYFCARGNYNYEYFDYWGQGVMVTVSSASTKGPSVFPLAPSSKSTSGGTAALGCLVKDYFPEPVTVSWNSGALTSGVHTFPAVLQSSGLYSLSSVVTVPSSSLGTQTYICNVNHKPSNTKVDKRVEPKSCHHHHHH light: QVQLVQSGGGVVQPGRSLRLSCKASGYTFTRYTMHWVRQAPGKGLEWIGYINPSRGYTNYNQKVKDRFTISRDNSKNTAFLQMDSLRPEDTGVYFCARYYDDHYSLDYWGQGTPVTVSSGGGGSGGGGSGGGGSDIQMTQSPSSLSASVGDRVTITCSASSSVSYMNWYQQTPGKAPKRWIYDTSKLASGVPSRFSGSGSGTDYTFTISSLQPEDIATYYCQQWSSNPFTFGQGTKLQITRGGGGSDIQMTQSPASLSASLGETVSIECLASEDIYSYLAWYQQKPGKSPQLLIFAANRLQDGVPSRFSGSGSGTQFSLKISGMQPEDEGDYFCLQGSKFPYTFGPGTKLELNRTVAAPSVFIFPPSDEQLKSGTASVVCLLNNFYPREAKVQWKVDNALQSGNSQESVTEQDSKDSTYSLSSTLTLSKADYEKHKVYACEVTHQGLSSPVTKSFNRGEC | 6.79 nM | 0.37 nM

More lines, in order of falling Kd [1], values ahead:

Kd [1] | Binder | EC50 of cytotoxic activity (calcein release, T-LAK effector cells) [2]
12.4 nM | Antibody 20 (bispecific antibody, hOKT3 scFv fused to the N-terminus of the B3 Fab heavy chain) heavy: QVQLVQSGGGVVQPGRSLRLSCKASGYTFTRYTMHWVRQAPGKGLEWIGYINPSRGYTNYNQKVKDRFTISRDNSKNTAFLQMDSLRPEDTGVYFCARYYDDHYSLDYWGQGTPVTVSSGGGGSGGGGSGGGGSDIQMTQSPSSLSASVGDRVTITCSASSSVSYMNWYQQTPGKAPKRWIYDTSKLASGVPSRFSGSGSGTDYTFTISSLQPEDIATYYCQQWSSNPFTFGQGTKLQITRGGGGSQVQLQQSGAELVKPGSSVKISCKASGYTFTRNFIHWIKQQPGNGLEWIGWIFPGDGDTEYNQKFNGKATLTADKSSSTAYMQLSSLTSEDSAVYFCARGNYNYEYFDYWGQGVMVTVSSASTKGPSVFPLAPSSKSTSGGTAALGCLVKDYFPEPVTVSWNSGALTSGVHTFPAVLQSSGLYSLSSVVTVPSSSLGTQTYICNVNHKPSNTKVDKRVEPKSCHHHHHH light: DIQMTQSPASLSASLGETVSIECLASEDIYSYLAWYQQKPGKSPQLLIFAANRLQDGVPSRFSGSGSGTQFSLKISGMQPEDEGDYFCLQGSKFPYTFGPGTKLELNRTVAAPSVFIFPPSDEQLKSGTASVVCLLNNFYPREAKVQWKVDNALQSGNSQESVTEQDSKDSTYSLSSTLTLSKADYEKHKVYACEVTHQGLSSPVTKSFNRGEC | 1.46 nM
2.83 nM | Antibody 16 (bispecific antibody, B3 Fab with hOKT3 scFv fused to the Fab heavy chain C-terminus) heavy: QVQLQQSGAELVKPGSSVKISCKASGYTFTRNFIHWIKQQPGNGLEWIGWIFPGDGDTEYNQKFNGKATLTADKSSSTAYMQLSSLTSEDSAVYFCARGNYNYEYFDYWGQGVMVTVSSASTKGPSVFPLAPSSKSTSGGTAALGCLVKDYFPEPVTVSWNSGALTSGVHTFPAVLQSSGLYSLSSVVTVPSSSLGTQTYICNVNHKPSNTKVDKRVEPKSCGGGGSQVQLVQSGGGVVQPGRSLRLSCKASGYTFTRYTMHWVRQAPGKGLEWIGYINPSRGYTNYNQKVKDRFTISRDNSKNTAFLQMDSLRPEDTGVYFCARYYDDHYSLDYWGQGTPVTVSSGGGGSGGGGSGGGGSDIQMTQSPSSLSASVGDRVTITCSASSSVSYMNWYQQTPGKAPKRWIYDTSKLASGVPSRFSGSGSGTDYTFTISSLQPEDIATYYCQQWSSNPFTFGQGTKLQITRHHHHHH light: DIQMTQSPASLSASLGETVSIECLASEDIYSYLAWYQQKPGKSPQLLIFAANRLQDGVPSRFSGSGSGTQFSLKISGMQPEDEGDYFCLQGSKFPYTFGPGTKLELNRTVAAPSVFIFPPSDEQLKSGTASVVCLLNNFYPREAKVQWKVDNALQSGNSQESVTEQDSKDSTYSLSSTLTLSKADYEKHKVYACEVTHQGLSSPVTKSFNRGEC | 0.334 nM
0.531 nM | Antibody 24 (bispecific antibody, human IgG1, kappa, L234A L235A, B3 IgG with hOKT3 scFv fused to the light chain N-terminus) heavy: not shown light: QVQLVQSGGGVVQPGRSLRLSCKASGYTFTRYTMHWVRQAPGKGLEWIGYINPSRGYTNYNQKVKDRFTISRDNSKNTAFLQMDSLRPEDTGVYFCARYYDDHYSLDYWGQGTPVTVSSGGGGSGGGGSGGGGSDIQMTQSPSSLSASVGDRVTITCSASSSVSYMNWYQQTPGKAPKRWIYDTSKLASGVPSRFSGSGSGTDYTFTISSLQPEDIATYYCQQWSSNPFTFGQGTKLQITRGGGGSDIQMTQSPASLSASLGETVSIECLASEDIYSYLAWYQQKPGKSPQLLIFAANRLQDGVPSRFSGSGSGTQFSLKISGMQPEDEGDYFCLQGSKFPYTFGPGTKLELNRTVAAPSVFIFPPSDEQLKSGTASVVCLLNNFYPREAKVQWKVDNALQSGNSQESVTEQDSKDSTYSLSSTLTLSKADYEKHKVYACEVTHQGLSSPVTKSFNRGEC | 0.138 nM
